{
  "source": "patent US20240109974A1",
  "about": "(SHANDONG SIMCERE BIOPHARMACEUTICAL, published 2024)",
  "binders": {"B1": {"name": "219-Hu3 (antibody, V domains shown)", "VH": "QVQLVQSGAEVKKPGSSVKVSCKASGYSFTNYWMNWVRQAPGQGLEWMGMIHPSDTETRLNQNFKDRVTITADKSTSTAYMELSSLRSEDTAVYYCARGEGLGAARSVSMDYWGQGTLVTVSS", "VL": "DIQMTQSPSSLSASVGDRVTITCRASQDISNYLNWYQQKPDGTVKLLIYYTAILHSGVPSRFSGSGSGTDYSLTISSLQPEDFATYFCQQGNTLPWTFGQGTKVEIK", "notes": "also called VH5 + VL5"}, "B2": {"name": "219-Hu1 (antibody, V domains shown)", "VH": "B1 VH with S16A, G44R, A72R, K74T, T76A", "VL": "B1 VL", "notes": "also called VH3 + VL5"}, "B3": {"name": "219-Hu2 (antibody, V domains shown)", "VH": "B1 VH with R67K, V68A", "VL": "B1 VL", "notes": "also called VH4 + VL5"}, "B4": {"name": "219-Hu4 (antibody, V domains shown)", "VH": "B1 VH with R38K, M48I, R67K, V68A, I70L, A72V", "VL": "B1 VL", "notes": "also called VH6 + VL5"}, "B5": {"name": "219-Hu5 (antibody, V domains shown)", "VH": "B1 VH with A72V", "VL": "B1 VL", "notes": "also called VH7 + VL5"}},
  "note": "Residue numbers refer to the chain shown, from its start.",
  "data": [
    {"biological_target": "T1, human TNFR2 (Novoprotein, Cat #C830) (human, UniProt P20333 23-257, limits assumed)", "T1 construct": "construct not described; also called human TNFR2 protein", "T1 sequence (looked up)": "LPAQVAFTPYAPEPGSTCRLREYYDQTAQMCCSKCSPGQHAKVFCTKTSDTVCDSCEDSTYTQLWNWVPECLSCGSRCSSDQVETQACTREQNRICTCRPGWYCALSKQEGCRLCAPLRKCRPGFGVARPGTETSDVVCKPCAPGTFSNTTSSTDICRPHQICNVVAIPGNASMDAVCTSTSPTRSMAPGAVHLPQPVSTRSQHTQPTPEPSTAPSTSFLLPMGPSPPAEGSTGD", "test": "competition ELISA, competitor human TNFα-Biotin; AUC against 219-WT", "protocol": "1 μg/ml human TNFR2 (Novoprotein, Cat #C830) was pre-coated with 100 μl/well […] in an ELISA plate. All the test TNFR2 antibodies were subjected to 2.5-fold gradient dilution from the highest concentration of 30 μg/ml; the diluted antibodies were mixed with 15 ng/ml human TNFα-Biotin (Acro Biosystem, Cat #TNA-H82E3) in equal volume, respectively; the resulting mixture was added to the ELISA plate at 100 μl/well, and incubated with shaking at room temperature for 2.0 hours. The plate was washed, and then a Streptavidin-HRP working solution (diluted at 1:10000) was added at 100 μl/well, and the mixture was incubated with shaking at room temperature for 40 minutes. The plate was washed again, and then the substrate TMB of HRP was added to develop colour. A stop solution was added to stop the reaction, and then a microplate reader (MD 13) was used to read the absorbance value. The inhibitory curve of an antibody was drawn with antibody concentration as the abscissa and corresponding OD value as the ordinate, and fitted with four parameters (GraphPad Prism9) to calculate the IC50 value. The smaller the IC50 value, the stronger the ability of an antibody to inhibit the binding of human TNFα to human TNFR2. The blocking effect of a humanized antibody was normalized to its corresponding human-murine chimeric antibody WT. The higher the percentage value, the better the inhibitory effect of the humanized antibody.", "units": {"% Relative activity (WT antibody/test antibody)": "%"}, "values": [
      {"binder": "B1", "% Relative activity (WT antibody/test antibody)": 103},
      {"binder": "B2", "% Relative activity (WT antibody/test antibody)": 105},
      {"binder": "B3", "% Relative activity (WT antibody/test antibody)": 104},
      {"binder": "B4", "% Relative activity (WT antibody/test antibody)": 105},
      {"binder": "B5", "% Relative activity (WT antibody/test antibody)": 106}
    ]},
    {"biological_target": "T2, human TNFR2 on the surface of CHO-TNFR2 cells (human, UniProt P20333 23-461)", "T2 construct": "whole, on cells", "T2 sequence (looked up)": "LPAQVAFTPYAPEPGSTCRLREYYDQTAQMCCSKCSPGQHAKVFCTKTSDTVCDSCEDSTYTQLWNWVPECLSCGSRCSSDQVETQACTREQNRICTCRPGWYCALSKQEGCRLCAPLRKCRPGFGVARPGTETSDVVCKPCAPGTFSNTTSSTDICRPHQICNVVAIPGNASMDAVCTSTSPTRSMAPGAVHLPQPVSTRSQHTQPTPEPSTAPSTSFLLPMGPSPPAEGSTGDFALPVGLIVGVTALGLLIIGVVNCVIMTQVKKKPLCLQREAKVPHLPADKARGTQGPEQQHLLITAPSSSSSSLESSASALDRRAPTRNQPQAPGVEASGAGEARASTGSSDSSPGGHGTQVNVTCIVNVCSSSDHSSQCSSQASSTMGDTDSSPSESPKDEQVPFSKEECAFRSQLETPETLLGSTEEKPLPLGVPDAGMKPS", "test": "flow cytometry on CHO-TNFR2 cells; EC50 against 219-WT", "protocol": "The transfected full-length plasmid of human TNFR2 was purchased from Sino Biological (Cat #HG10417-UT, NCBI Ref Seq: NM_001066.2). The experiment was conducted at a cell density within 80%. The cell medium was discarded; the cells were rinsed with PBS, and digested with 1 ml trypsin for 2 minutes; the digestion was stopped with a Ham's F12 complete medium containing 10% FBS, and then a cell suspension was made. The cell suspension was counted, and then an appropriate amount of cell suspension was centrifuged at 350×g; the supernatant was discarded; a corresponding volume of blocking solution (10% FBS+PBS) at a density of 1×10⁷ cells/ml was added to resuspend the cells, and the mixture was incubated at 4° C. for 30 minutes. After the incubation, the mixture was centrifuged at 350×g to remove the supernatant, and the cells were resuspended in a staining buffer (2% FBS+PBS) to a density of 2×10⁶ cells/ml, and spread onto a 96-well plate, with 50 μl of cell suspension added to each well for later use. The antibody was diluted with PBS for 10-fold gradient dilution from the highest concentration of 20 μg/m (twice the concentration); the diluted antibody was added to the well containing 50 μl of cell suspension, and placed on a microplate shaker for shaking at 500 rpm for 1 minute, so that the antibody was fully mixed with the cells; the mixture was incubated at 4° C. for 1 h. After the incubation, the cells were washed twice with the staining buffer, with 100 μl per well, and centrifuged at 350-g for 5 minutes, and the supernatant was discarded. The PE goat anti-Human IgG Fc antibody (ebioscience, Cat #12-4998-82) was diluted 250-fold with the staining buffer, with a volume of 100 μl per well added to the washed cell wells; the mixture was mixed evenly, and stained at 4° C. for 30 minutes. After the staining, similarly, the cells were washed twice with the staining buffer; finally, the cells were resuspended in 200 μl of staining buffer; signals were detected by a flow cytometer (Thermo Attune NxT). The stronger the signal, the stronger the binding ability of an antibody to TNFR2. The binding curve of an antibody was drawn with antibody concentration as the abscissa and corresponding mean fluorescence intensity (MFI) fold as the ordinate, and fitted with four parameters (GraphPad Prism9) to calculate the EC50 value.", "units": {"% Relative activity (WT antibody/test antibody)": "%"}, "values": [
      {"binder": "B1", "% Relative activity (WT antibody/test antibody)": 145},
      {"binder": "B2", "% Relative activity (WT antibody/test antibody)": 100},
      {"binder": "B3", "% Relative activity (WT antibody/test antibody)": 97.1},
      {"binder": "B4", "% Relative activity (WT antibody/test antibody)": 142},
      {"binder": "B5", "% Relative activity (WT antibody/test antibody)": 147}
    ]}
  ]
}
